Measurements reported in article PMC9943647, “Structures of pMV158 replication initiator RepB with and without DNA reveal a flexible dual-function protein” (Nucleic Acids Research, 2023).

Legend:
[1] = target: T1, RepB OBD (origin binding domain), wt (Streptococcus plasmid pMV158, UniProt P13921 1-131); experiment: EMSA; EMSA: 20 mM Tris-HCl pH 8.0, 5 mM DTT, 300 mM NaCl, 20 nM DNA, 20 min 25 C; footprinting same buffer; SPR: 10 mM HEPES pH 7.4, 150 mM NaCl, 3 mM EDTA, 0.005% P20; conditions: protein: recombinant; tags: none; label: 5'-Cy5 (top); blunt
T1 sequence: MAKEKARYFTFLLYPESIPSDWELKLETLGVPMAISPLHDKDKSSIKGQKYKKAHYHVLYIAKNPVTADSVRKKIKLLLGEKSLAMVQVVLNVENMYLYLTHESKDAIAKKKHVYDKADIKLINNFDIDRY

[2] = target: the molecule itself; experiment: crystal structure; full-length RepB without DNA; hanging drop, 100 mM Na/K phosphate pH 6.2, 200 mM NaCl, 10% PEG 8000; space group P21, 2.77 A
[3] = target: OBD R72A (Streptococcus plasmid pMV158, UniProt P13921 1-131, R72A); experiment: EMSA; EMSA: 20 mM Tris-HCl pH 8.0, 5 mM DTT, 300 mM NaCl, 20 nM DNA, 20 min 25 C; footprinting same buffer; SPR: 10 mM HEPES pH 7.4, 150 mM NaCl, 3 mM EDTA, 0.005% P20; conditions: protein: recombinant; label: 5'-Cy5 (top); blunt
[4] = target: OBD K5A (Streptococcus plasmid pMV158, UniProt P13921 1-131, K5A); experiment: as above; conditions: protein: recombinant; label: 5'-Cy5 (top); blunt
[5] = target: OBD E4A (Streptococcus plasmid pMV158, UniProt P13921 1-131, E4A); experiment: as above; conditions: protein: recombinant; label: 5'-Cy5 (top); blunt
[6] = target: OBD K76A (Streptococcus plasmid pMV158, UniProt P13921 1-131, K76A); experiment: as above; conditions: protein: recombinant; label: 5'-Cy5 (top); blunt
[7] = target: OBD quadruple mutant (Streptococcus plasmid pMV158, UniProt P13921 1-131, R72A;K73A;K74A;K76A); experiment: as above; conditions: protein: recombinant; label: 5'-Cy5 (top); blunt
[8] = target: OBD triple mutant (Streptococcus plasmid pMV158, UniProt P13921 1-131, K3A;E4A;K5A); experiment: as above; conditions: protein: recombinant; label: 5'-Cy5 (top); blunt
[9] = target: T1, RepB OBD (origin binding domain), wt; experiment: SPR; HBS-EP pH 7.4, 150 mM NaCl; specific DNA is 1DDR in text, DDRC in Fig 3; EMSA: 20 mM Tris-HCl pH 8.0, 5 mM DTT, 300 mM NaCl, 20 nM DNA, 20 min 25 C; footprinting same buffer; SPR: 10 mM HEPES pH 7.4, 150 mM NaCl, 3 mM EDTA, 0.005% P20; conditions: protein: recombinant; tags: none; label: 5'-Cy5 (top) for EMSA; 5'-biotin for SPR; blunt
[10] = target: T1, RepB OBD (origin binding domain), wt; experiment: EMSA; complex half-life <10 s; EMSA: 20 mM Tris-HCl pH 8.0, 5 mM DTT, 300 mM NaCl, 20 nM DNA, 20 min 25 C; footprinting same buffer; SPR: 10 mM HEPES pH 7.4, 150 mM NaCl, 3 mM EDTA, 0.005% P20; conditions: protein: recombinant; tags: none; label: 5'-Cy5 (top) for EMSA; 5'-biotin for SPR; blunt
[11] = target: T1, RepB OBD (origin binding domain), wt; experiment: SPR; HBS-EP pH 7.4, 150 mM NaCl; Results text names 1DDR, but Methods, Table S1 and Fig 3 legend name DDRC; EMSA: 20 mM Tris-HCl pH 8.0, 5 mM DTT, 300 mM NaCl, 20 nM DNA, 20 min 25 C; footprinting same buffer; SPR: 10 mM HEPES pH 7.4, 150 mM NaCl, 3 mM EDTA, 0.005% P20; conditions: protein: recombinant; tags: none; label: 5'-Cy5 (top) for EMSA; 5'-biotin for SPR; blunt
[12] = target: T1, RepB OBD (origin binding domain), wt; experiment: EMSA; per DDR site, independent binding, complexes C1-C3; Kd ~0.8 uM; EMSA: 20 mM Tris-HCl pH 8.0, 5 mM DTT, 300 mM NaCl, 20 nM DNA, 20 min 25 C; footprinting same buffer; SPR: 10 mM HEPES pH 7.4, 150 mM NaCl, 3 mM EDTA, 0.005% P20; conditions: protein: recombinant; tags: none; label: 5'-Cy5 (top) for EMSA; 32P at both 5' ends for footprinting; blunt

B1: DDRR (dsDNA)
DNA 1: CTTTTCGGCGACTTTTTAG
DNA 2: CTAAAAAGTCGCCGAAAAG
Work on B1 yielded a Kd [1] of about 1 µM.

B2: RepB, replication initiation protein of plasmid pMV158 (full-length hexamer) (natural protein, streptococcal plasmid pMV158, UniProt P13921 1-210, looked up)
chain: MAKEKARYFTFLLYPESIPSDWELKLETLGVPMAISPLHDKDKSSIKGQKYKKAHYHVLYIAKNPVTADSVRKKIKLLLGEKSLAMVQVVLNVENMYLYLTHESKDAIAKKKHVYDKADIKLINNFDIDRYVTLDVEEKTELFNVVVSLIRAYTLQNIFDLYDFIDENGETYGLTINLVNEVIAGKTGFMKLLFDGAYQRSKRGTKNEER
notes: RepB, replication initiator (HUH endonuclease) of the streptococcal plasmid pMV158; Crystallised without DNA; a phosphate sits in each active site instead of Mn2+; also called RepB6; full-length RepB
For B2, the “stoichiometry N” value [2] was 6.

B3: 1DDR (dsDNA)
DNA 1: AATCTCGGCGACTTTTTAGA
DNA 2: TCTAAAAAGTCGCCGAGATT
B3 was tested, and the Kd [3] was 1.7 ± 0.2 µM, the Kd [4] was 1.8 ± 0.2 µM and the Kd [5] was 0.6 ± 0.1 µM. For the same binder, the Kd [6] was 5.5 ± 0.7 µM, the Kd [1] was 1.1 ± 0.1 µM and the binding result [7] was “no binding”. It also gave a Kd [8] of 1.1 ± 0.1 µM.

B4: NS (dsDNA)
DNA 1: CGGGTCGGTAATTGGGTTT
DNA 2: AAACCCAATTACCGACCCG
For B4, the binding signal [9] was ~15 fold lower affinity than specific DNA.

B5: DDRC (dsDNA)
DNA 1: CTTTTCGGCGACTTTTCGG
DNA 2: CCGAAAAGTCGCCGAAAAG
B5 showed a Kd [10] of about 1 µM and a Kd [11] of 0.22 ± 0.01 µM.

B6: DDRL (dsDNA)
DNA 1: AATCTCGGCGACTTTTCGG
DNA 2: CCGAAAAGTCGCCGAGATT
With B6 the Kd [1] was about 1 µM.

B7: 3DDR (dsDNA)
DNA 1: AATCTCGGCGACTTTTCGGCGACTTTTCGGCGACTTTTTAGA
DNA 2: TCTAAAAAGTCGCCGAAAAGTCGCCGAAAAGTCGCCGAGATT
Work on B7 yielded a Ka [12] of 1.2 ± 0.4 µM⁻¹.
